Measured values published in IntAct's records for PubMed 20890290.

B1: Elongation factor 1 alpha-like protein (Schizosaccharomyces pombe (strain ATCC 38366 / 972)), O74774 (parent)
chain: MSRHRDVKNLDLDDYELDEEPGEEELTEEQEEEFRSAVATVRETLLGVPISEKEIADTVWYYYFDVEKSVNYLLQKASSKAGAKEKQNTDSQKEKKQNKSKEALADAKDPLDESSNGIKNLSLNKNDEPAFQTNGEVKMKNSSESDNQPEKKKIKKQNPTDLVSVPEIFEQSNPKPVVHLVVTGHVDSGKSTMLGRIMFELGEINSRSMQKLHNEAANSGKGSFSYAWLLDTTEEERARGVTMDVASTTFESDKKIYEIGDAPGHRDFISGMIAGASSADFAVLVVDSSQNNFERGFLENGQTREHAYLLRALGISEIVVSVNKLDLMSWSEDRFQEIKNIVSDFLIKMVGFKTSNVHFVPISAISGTNLIQKDSSDLYKWYKGPTLLSALDQLVPPEKPYRKPLRLSIDDVYRSPRSVTVTGRVEAGNVQVNQVLYDVSSQEDAYVKNVIRNSDPSSTWAVAGDTVTLQLADIEVNQLRPGDILSNYENPVRRVRSFVAEIQTFDIHGPILSGSTLVLHLGRTVTSVSLKIVTVNNKRSRHIASRKRALVRISFLDGLFPLCLAEECPALGRFILRRSGDTVAAGIVKELC
partner: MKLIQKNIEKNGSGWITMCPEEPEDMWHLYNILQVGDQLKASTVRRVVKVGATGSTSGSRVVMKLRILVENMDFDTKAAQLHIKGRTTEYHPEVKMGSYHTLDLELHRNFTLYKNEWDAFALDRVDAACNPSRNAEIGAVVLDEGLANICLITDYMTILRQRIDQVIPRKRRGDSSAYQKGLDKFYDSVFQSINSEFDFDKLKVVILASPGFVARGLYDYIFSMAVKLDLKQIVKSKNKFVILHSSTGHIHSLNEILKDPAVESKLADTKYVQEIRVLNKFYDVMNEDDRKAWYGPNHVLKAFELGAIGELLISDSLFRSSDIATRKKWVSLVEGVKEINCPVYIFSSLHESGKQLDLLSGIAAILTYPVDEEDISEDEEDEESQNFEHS
B2: Protein dom34 (Schizosaccharomyces pombe (strain ATCC 38366 / 972)), Q9USL5 (parent)
chain: B1 partner
partner: B1 chain

Variants of: B1
Conditions: with dom34_schpo dom34, Q9USL5

Effect of a mutation on the interaction, decreasing interaction:
D411A
K531A
R541A
R480A
R523A
D557A

Variants of: B2
Conditions: with hbs1_schpo hbs1, O74774

Effect of a mutation on the interaction, decreasing interaction:
D164A
R162A
